The record followed here is patent US20160144003A1 (Scripps Research, published 2016).

For orientation: Kd means the equilibrium constant for the complex coming apart. Read a high Kd as weaker binding.

One assay has as its target T1, human GlyRS L129P mutant (human, UniProt P41250 55-739).
T1 construct: also called L129P GlyRS; L129P-His; not shown: His tag
T1 sequence: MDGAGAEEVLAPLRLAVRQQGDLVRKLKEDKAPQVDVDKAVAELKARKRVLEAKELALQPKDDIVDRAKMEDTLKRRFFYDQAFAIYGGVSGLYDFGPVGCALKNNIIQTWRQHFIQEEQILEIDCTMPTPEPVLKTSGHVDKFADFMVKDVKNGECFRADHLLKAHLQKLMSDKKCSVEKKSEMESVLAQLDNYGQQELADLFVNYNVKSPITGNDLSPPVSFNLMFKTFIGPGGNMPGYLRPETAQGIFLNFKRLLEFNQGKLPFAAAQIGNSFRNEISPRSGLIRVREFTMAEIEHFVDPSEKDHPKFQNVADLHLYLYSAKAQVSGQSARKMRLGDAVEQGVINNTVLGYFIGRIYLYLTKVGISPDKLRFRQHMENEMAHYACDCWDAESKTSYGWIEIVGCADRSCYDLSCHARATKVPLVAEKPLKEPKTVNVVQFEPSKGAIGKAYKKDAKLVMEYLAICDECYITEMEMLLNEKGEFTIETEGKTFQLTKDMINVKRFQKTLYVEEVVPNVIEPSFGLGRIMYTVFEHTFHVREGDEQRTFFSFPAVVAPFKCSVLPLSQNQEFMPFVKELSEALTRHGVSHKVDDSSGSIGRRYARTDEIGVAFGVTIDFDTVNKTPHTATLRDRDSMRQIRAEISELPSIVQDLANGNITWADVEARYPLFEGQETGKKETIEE
Description: bio-layer interferometry (Octet RED), NRP1-Fc on Protein G biosensors, global 1:1 fit of five concentrations. How it is done:
FIGS. 15A-15C show the binding affinity between various GlyRS polypeptides and neuropilin-1 (NRP-1). In FIG. 15A, the binding between NRP-1 and GlyRS (wild-type (WT), CMT-associated mutant L129P, and CMT-associated mutant P234KY) at 1 μM was compared by bio-layer interferometry in Octet RED system. No binding was detected between NRP-1 and WT GlyRS, but strong binding was detected between NRP-1 and each of the CMT-associated mutants L129P and P234KY.
The binding constants between GlyRS CMT mutants (L129P and P234KY) and Neuropilin-1 (NRP1) were measured using Octet RED (ForteBio, Inc.). Octet RED utilizes bio-layer interferometry (BLI) technology that enables real-time analysis of protein-protein interactions on the surface of a fiber optic biosensor. The protein of interest is firstly immobilized on the biosensor and then exposed to the protein analyte in solution. The binding of two proteins changes the optical properties of the biosensor, leading to a shift in the wavelength of reflected light. This shift in wavelength allows the measurement of the determination of the binding constant.
For orientation: Biolayer interferometry detects binding as a change in optical thickness at a sensor tip.

The target of assay [1] is T2, human GlyRS P234KY mutant (human, UniProt P41250 55-739).
T2 sequence: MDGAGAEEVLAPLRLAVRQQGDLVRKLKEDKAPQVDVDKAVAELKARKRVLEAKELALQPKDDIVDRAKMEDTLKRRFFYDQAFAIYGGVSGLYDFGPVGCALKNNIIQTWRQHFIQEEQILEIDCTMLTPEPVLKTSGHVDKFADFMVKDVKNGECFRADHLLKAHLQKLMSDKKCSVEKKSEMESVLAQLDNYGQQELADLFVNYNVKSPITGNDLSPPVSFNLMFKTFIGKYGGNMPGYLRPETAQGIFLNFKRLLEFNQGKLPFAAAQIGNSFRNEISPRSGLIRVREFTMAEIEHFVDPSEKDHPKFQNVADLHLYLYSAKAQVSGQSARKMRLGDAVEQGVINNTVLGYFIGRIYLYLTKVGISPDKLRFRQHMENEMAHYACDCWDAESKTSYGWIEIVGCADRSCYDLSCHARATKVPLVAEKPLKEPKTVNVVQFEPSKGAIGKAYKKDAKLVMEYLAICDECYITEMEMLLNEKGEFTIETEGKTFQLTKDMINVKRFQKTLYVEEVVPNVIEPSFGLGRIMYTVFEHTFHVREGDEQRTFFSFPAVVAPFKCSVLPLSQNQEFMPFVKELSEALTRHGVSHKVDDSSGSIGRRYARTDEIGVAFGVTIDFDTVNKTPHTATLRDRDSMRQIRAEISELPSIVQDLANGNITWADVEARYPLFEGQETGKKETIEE
Description: bio-layer interferometry (Octet RED), NRP1-Fc on Protein G biosensors, global 1:1 fit of three concentrations.

B1: recombinant neuropilin-1/Fc extracellular domain chimeric protein (R&D systems) (Fc fusion)
chain: FRSDKCGGTIKIENPGYLTSPGYPHSYHPSEKCEWLIQAPEPYQRIMINFNPHFDLEDRDCKYDYVEVIDGENEGGRLWGKFCGKIAPSPVVSSGPFLFIKFVSDYETHGAGFSIRYEIFKRGPECSQNYTAPTGVIKSPGFPEKYPNSLECTYIIFAPKMSEIILEFESFDLEQDSNPPGGVFCRYDRLEIWDGFPEVGPHIGRYCGQKTPGRIRSSSGILSMVFYTDSAIAKEGFSANYSVLQSSISEDFKCMEALGMESGEIHSDQITASSQYGTNWSVERSRLNYPENGWTPGEDSYREWIQVDLGLLRFVTAVGTQGAISKETKKKYYVKTYRVDISSNGEDWITLKEGNKAIIFQGNTNPTDVVFGVFPKPLITRFVRIKPASWETGISMRFEVYGCKITDYPCSGMLGMVSGLISDSQITASNQGDRNWMPENIRLVTSRTGWALPPSPHPYINEWLQVDLGDEKIVRGVIIQGGKHRENKVFMRKFKIAYSNNGSDWKMIMDDSKRKAKSFEGNNNYDTPELRAFTPLSTRFIRIYPERATHSGLGLRMELLGCEVEVPTAGPTTPNGNPVDECDDDQANCHSGTGDDFQLTGGTTVLATEKPTIIDSTIQSEFPTYGFNCEFGWGSHKTFCHWEHDSHAQLRWRVLTSKTGPIQDHTGDGNFIYSQADENQKGKVARLVSPVVYSQSSAHCMTFWYHMSGSHVGTLRVKLHYQKPEEYDQLVWMVVGHQGDHWKEGRVLLHKSLKLYQVIFEGEIGKGNLGGIAVDDISINNHIPQEDCAKPTDLDKKNTEIKIDETGSTPGYEEGKGDKNISRKPGNVLKTLDPI
On to B1, for which the Kd in the assay with human GlyRS L129P mutant turned out to be 36.8 nM; in assay [1], 162 nM.
